What follows are sequences tested on Escherichia coli TOP10 (assay: shrunken log2 fold change of peptide-encoding DNA abundance (4.5 h post-induction vs induction); higher = less antimicrobial activity (less host growth inhibition)). Details: time post-induction: 4.5 h; library: site-saturation at positions 5, 18, 19, 20.
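Note: peptides expressed intracellularly from a pBAD plasmid library in pooled LB shake-flask culture, induced with 0.3% L-arabinose, DNA abundance read by NGS, three biological replicates, DESeq2 with apeglm shrinkage.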

Sequence	shrunken log2 fold change
RRIRPRPPRLPRPRPRPIFWPRP	1.25
RRIRWRPPRLPRPRPRPCCSPRP	-0.0402
RRIRRRPPRLPRPRPRPKDQPRP	0.26
RRIRSRPPRLPRPRPRPWMKPRP	-0.00765
RRIRRRPPRLPRPRPRPKNWPRP	0.381
RRIRSRPPRLPRPRPRPYTSPRP	-0.14
RRIRMRPPRLPRPRPRPWGWPRP	1.08
RRIRPRPPRLPRPRPRPDPTPRP	0.166
RRIRDRPPRLPRPRPRPGPDPRP	0.217
RRIRKRPPRLPRPRPRPQEYPRP	-0.0576
RRIRARPPRLPRPRPRPEFHPRP	0.847
RRIRNRPPRLPRPRPRPGDFPRP	0.264
RRIRVRPPRLPRPRPRPQQWPRP	0.0185
RRIRVRPPRLPRPRPRPFRKPRP	-0.0712
RRIRCRPPRLPRPRPRPWCHPRP	-0.463
RRIRLRPPRLPRPRPRPLEYPRP	-0.116
RRIRGRPPRLPRPRPRPYFPPRP	-0.37
RRIRDRPPRLPRPRPRPQAIPRP	0.0512
RRIRGRPPRLPRPRPRPYDWPRP	0.0669
RRIRRRPPRLPRPRPRPENFPRP	-0.0287
RRIRIRPPRLPRPRPRPTKMPRP	-0.116
RRIRNRPPRLPRPRPRPVVVPRP	-0.11
RRIRFRPPRLPRPRPRPMPGPRP	-0.0263
RRIRGRPPRLPRPRPRPNPIPRP	0.0839
RRIRFRPPRLPRPRPRPNDQPRP	-0.0705

Sequence	shrunken log2 fold change
RRIRWRPPRLPRPRPRPRMQPRP	0.329
RRIRIRPPRLPRPRPRPHVSPRP	-0.0557
RRIRCRPPRLPRPRPRPELGPRP	0.211
RRIRCRPPRLPRPRPRPDCSPRP	0.072
RRIRARPPRLPRPRPRPVNQPRP	-0.0386
RRIRIRPPRLPRPRPRPSVIPRP	-0.661
RRIRYRPPRLPRPRPRPHPYPRP	-0.449
RRIRSRPPRLPRPRPRPWHPPRP	-0.125
RRIRRRPPRLPRPRPRPRLIPRP	0.874
RRIRVRPPRLPRPRPRPGCTPRP	-0.246
RRIRIRPPRLPRPRPRPLERPRP	0.0105
RRIRDRPPRLPRPRPRPIGGPRP	0.0266
RRIRNRPPRLPRPRPRPLNWPRP	-0.269
RRIRVRPPRLPRPRPRPLRSPRP	0.132
RRIRSRPPRLPRPRPRPRDLPRP	0.254
RRIRWRPPRLPRPRPRPTSTPRP	0.0842
RRIRCRPPRLPRPRPRPDVCPRP	-0.0548
RRIRQRPPRLPRPRPRPLYLPRP	-0.511
RRIRVRPPRLPRPRPRPTDLPRP	-0.101
RRIRFRPPRLPRPRPRPRMPPRP	0.145
RRIRGRPPRLPRPRPRPNETPRP	0.0274
RRIRRRPPRLPRPRPRPISTPRP	-0.0842
RRIRFRPPRLPRPRPRPFTYPRP	-0.208
RRIRPRPPRLPRPRPRPNGTPRP	0.247
RRIRARPPRLPRPRPRPDPWPRP	0.308

Sequence	shrunken log2 fold change
RRIRYRPPRLPRPRPRPDQSPRP	-0.0117
RRIRQRPPRLPRPRPRPEFPPRP	-0.0498
RRIRLRPPRLPRPRPRPSRHPRP	-0.415
RRIRNRPPRLPRPRPRPASTPRP	-0.269
RRIRRRPPRLPRPRPRPQYHPRP	-0.145
RRIRCRPPRLPRPRPRPWDVPRP	0.0309
RRIRSRPPRLPRPRPRPIRGPRP	-0.0109
RRIRTRPPRLPRPRPRPDMPPRP	-0.064
RRIRGRPPRLPRPRPRPTNFPRP	-0.0941
RRIRERPPRLPRPRPRPEIKPRP	-0.0374
RRIRQRPPRLPRPRPRPMMCPRP	-0.0115
RRIRKRPPRLPRPRPRPHIFPRP	-0.0478
RRIRYRPPRLPRPRPRPIIIPRP	-0.161
RRIRGRPPRLPRPRPRPYAGPRP	-0.0412
RRIRERPPRLPRPRPRPDNQPRP	-0.459
RRIRQRPPRLPRPRPRPEFEPRP	-0.0193
RRIRTRPPRLPRPRPRPLILPRP	-0.839
RRIRCRPPRLPRPRPRPIMMPRP	-0.211
RRIRFRPPRLPRPRPRPAILPRP	0.0816
RRIRGRPPRLPRPRPRPQIEPRP	0.462
RRIRERPPRLPRPRPRPLEGPRP	-0.363
RRIRFRPPRLPRPRPRPLNLPRP	-0.542
RRIRQRPPRLPRPRPRPMPMPRP	-0.00149
RRIRWRPPRLPRPRPRPIDQPRP	0.105
RRIRIRPPRLPRPRPRPQMNPRP	-0.887

Sequence	shrunken log2 fold change
RRIRFRPPRLPRPRPRPIKCPRP	-0.229
RRIRLRPPRLPRPRPRPSKAPRP	-0.0252
RRIRLRPPRLPRPRPRPMSAPRP	0.344
RRIRMRPPRLPRPRPRPKGKPRP	0.288
RRIRQRPPRLPRPRPRPIWSPRP	-0.514
RRIRPRPPRLPRPRPRPFQNPRP	-0.445
RRIRARPPRLPRPRPRPQFMPRP	0.546
RRIRFRPPRLPRPRPRPMFKPRP	-0.581
RRIRERPPRLPRPRPRPMFWPRP	0.0831
RRIRCRPPRLPRPRPRPNDDPRP	-0.161
RRIRARPPRLPRPRPRPWKCPRP	0.0662
RRIRNRPPRLPRPRPRPWDPPRP	-0.00879
RRIRSRPPRLPRPRPRPTQMPRP	0.502
RRIRGRPPRLPRPRPRPNVHPRP	0.167
RRIRIRPPRLPRPRPRPSKSPRP	-0.413
RRIRARPPRLPRPRPRPRYTPRP	-0.0676
RRIRIRPPRLPRPRPRPWYVPRP	-0.247
RRIRIRPPRLPRPRPRPSNGPRP	0.0107
RRIRDRPPRLPRPRPRPKSWPRP	0.421
RRIRVRPPRLPRPRPRPKCIPRP	0.0104
RRIRWRPPRLPRPRPRPTIFPRP	0.0443
RRIRFRPPRLPRPRPRPHSLPRP	-0.169
RRIRPRPPRLPRPRPRPRAPPRP	0.683
RRIRNRPPRLPRPRPRPCFWPRP	-0.0333
RRIRMRPPRLPRPRPRPLIVPRP	1.71

Sequence	shrunken log2 fold change
RRIRSRPPRLPRPRPRPTVLPRP	0.0356
RRIRGRPPRLPRPRPRPMTSPRP	0.445
RRIRSRPPRLPRPRPRPYKLPRP	-0.399
RRIRERPPRLPRPRPRPHWKPRP	-0.0167
RRIRFRPPRLPRPRPRPKIFPRP	-0.197
RRIRWRPPRLPRPRPRPHRMPRP	-0.203
RRIRERPPRLPRPRPRPSPIPRP	-0.122
RRIRARPPRLPRPRPRPSMKPRP	-0.037
RRIRLRPPRLPRPRPRPRFGPRP	0.145
RRIRKRPPRLPRPRPRPMTEPRP	0.0103
RRIRKRPPRLPRPRPRPQQSPRP	-0.0568
RRIRNRPPRLPRPRPRPTMYPRP	-0.486
RRIRIRPPRLPRPRPRPYRTPRP	0.0026
RRIRLRPPRLPRPRPRPEYMPRP	-0.741
RRIRNRPPRLPRPRPRPGPCPRP	-0.0814
RRIRTRPPRLPRPRPRPDCAPRP	0.719
RRIRRRPPRLPRPRPRPFNRPRP	-0.557
RRIRIRPPRLPRPRPRPDAYPRP	-0.0729
RRIRPRPPRLPRPRPRPVNPPRP	0.0675
RRIRVRPPRLPRPRPRPRELPRP	-0.0137
RRIRGRPPRLPRPRPRPCVAPRP	1.1
RRIRHRPPRLPRPRPRPMPNPRP	-0.0341
RRIRMRPPRLPRPRPRPFTTPRP	-0.0216
RRIRNRPPRLPRPRPRPKTAPRP	-0.232
RRIRARPPRLPRPRPRPMHDPRP	0.341

Sequence	shrunken log2 fold change
RRIRGRPPRLPRPRPRPITAPRP	0.236
RRIRDRPPRLPRPRPRPLSDPRP	0.125
RRIRARPPRLPRPRPRPAFCPRP	0.645
RRIRVRPPRLPRPRPRPEAKPRP	0.293
RRIRRRPPRLPRPRPRPRCAPRP	0.469
RRIRWRPPRLPRPRPRPGVQPRP	0.309
RRIRSRPPRLPRPRPRPIHVPRP	-0.154
RRIRGRPPRLPRPRPRPKVRPRP	0.105
RRIRFRPPRLPRPRPRPMNPPRP	-0.0531
RRIRERPPRLPRPRPRPITCPRP	0.0303
RRIRWRPPRLPRPRPRPTPFPRP	0.153
RRIRVRPPRLPRPRPRPKGIPRP	-0.115
RRIRSRPPRLPRPRPRPVLTPRP	-0.0627
RRIRWRPPRLPRPRPRPMLVPRP	0.288
RRIRGRPPRLPRPRPRPFMVPRP	-0.131
RRIRKRPPRLPRPRPRPMAEPRP	0.208
RRIRCRPPRLPRPRPRPMRTPRP	0.962
RRIRKRPPRLPRPRPRPSDWPRP	0.288
RRIRCRPPRLPRPRPRPSMQPRP	-0.328
RRIRFRPPRLPRPRPRPGQNPRP	0.0186
RRIRVRPPRLPRPRPRPKLTPRP	-0.0989
RRIRHRPPRLPRPRPRPADFPRP	0.116
RRIRHRPPRLPRPRPRPNWQPRP	-0.0282
RRIRSRPPRLPRPRPRPEVNPRP	0.426
RRIRWRPPRLPRPRPRPNMMPRP	0.00802
